Target: HLA-A*02:01 (Homo sapiens, UniProt P04439, D140Y/D185E/D98H/E176V/E277Q/G131W/G231S/I119V/I121R/I166T/I218V/L300P/L318F/N151K/N90K/P208A/P217A/Q86G/Q94H/R138H/R169H/T345S)
Assay: MHC binding assay (UV-ligand exchange, beta2m ELISA, peptide exchange yield)
Details: binding of HLA-class I restricted peptides to HLA-A*02:01, ranged by peptide exchange yield (UV-ligand exchange, β2m ELISA)
Method in brief: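 Peptide–HLA-A*02:01 complexes made by UV-mediated exchange of a photocleavable peptide with the test peptide. Exchange products diluted 100-fold on streptavidin-coated plates, 1 h at 37°C, then HRP anti-β2m 1 h at 37°C; TMB read at 450 nm to give exchange yield.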

## 456 (LLIGHLERV; listed as Homo sapiens) [compound 456]
  Peptide exchange: ″+++″ (≥50% = +++)

## 507 (KLIDDQDISISL; listed as Homo sapiens) [compound 507]
  Peptide exchange: ″+++″ (≥50% = +++)

## 256 (FLPPEHTIVYI; listed as Homo sapiens) [compound 256]
  Peptide exchange: ″+++″ (≥50% = +++)

## 589 (KLYPQLPAEI; listed as Homo sapiens) [compound 589]
  Peptide exchange: ″+++″ (≥50% = +++)

## 575 (YLISQVEGHQV; listed as Homo sapiens) [compound 575]
  Peptide exchange: ″+++″ (≥50% = +++)

## 486 (AVMESIQGV; listed as Homo sapiens) [compound 486]
  Peptide exchange: ″+++″ (≥50% = +++)

## 85 (KMSELRVTL; listed as Homo sapiens) [compound 85]
  Peptide exchange: ″+++″ (≥50% = +++)

## 593 (GLPRFGIEMV; listed as Homo sapiens) [compound 593]
  Peptide exchange: ″+++″ (≥50% = +++)

## 320 (KMFEFVEPLL; listed as Homo sapiens) [compound 320]
  Peptide exchange: ″++++″ (≥75% = ++++)

## 606 (ALWETEVYI; listed as Homo sapiens) [compound 606]
  Peptide exchange: ″+++″ (≥50% = +++)

## 374 (FLLQQHLISA; listed as Homo sapiens) [compound 374]
  Peptide exchange: ″++″ (≥20% = ++)

## 177 (YLLPEEYTSTL; listed as Homo sapiens) [compound 177]
  Peptide exchange: ″++++″ (≥75% = ++++)

## 381 (FIDEAYVEV; listed as Homo sapiens) [compound 381]
  Peptide exchange: ″++″ (≥20% = ++)

## 539 (ALFDAQAQV; listed as Homo sapiens) [compound 539]
  Peptide exchange: ″+++″ (≥50% = +++)

## 20 (RMIEYFIDV; listed as Homo sapiens) [compound 20]
  Peptide exchange: ″+++″ (≥50% = +++)

## 453 (KLLEATSAV; listed as Homo sapiens) [compound 453]
  Peptide exchange: ″++″ (≥20% = ++)

## 31 (YLAPELFVNV; listed as Homo sapiens) [compound 31]
  Peptide exchange: ″++″ (≥20% = ++)

## 530 (VMYADIGGMDI; listed as Homo sapiens) [compound 530]
  Peptide exchange: ″+++″ (≥50% = +++)

## 297 (VLADIELAQA; listed as Homo sapiens) [compound 297]
  Peptide exchange: ″+++″ (≥50% = +++)

## 125 (VQIHQVAQV; listed as Homo sapiens) [compound 125]
  Peptide exchange: ″+++″ (≥50% = +++)

## 594 (IMLKGDNITL; listed as Homo sapiens) [compound 594]
  Peptide exchange: ″+++″ (≥50% = +++)

## 133 (KVLSNIHTV; listed as Homo sapiens) [compound 133]
  Peptide exchange: ″++″ (≥20% = ++)

## 102 (YLFESEGLVL; listed as Homo sapiens) [compound 102]
  Peptide exchange: ″+++″ (≥50% = +++)

## 303 (AILPQLFMV; listed as Homo sapiens) [compound 303]
  Peptide exchange: ″++++″ (≥75% = ++++)

## 318 (GLINTGVLSV; listed as Homo sapiens) [compound 318]
  Peptide exchange: ″++″ (≥20% = ++)

## 541 (SMLEPVPEL; listed as Homo sapiens) [compound 541]
  Peptide exchange: ″+++″ (≥50% = +++)

## 345 (VIWKALIHL; listed as Homo sapiens) [compound 345]
  Peptide exchange: ″+++″ (≥50% = +++)

## 305 (SIANFSEFYV; listed as Homo sapiens) [compound 305]
  Peptide exchange: ″++++″ (≥75% = ++++)

## 86 (NLIGKIENV; listed as Homo sapiens) [compound 86]
  Peptide exchange: ″+++″ (≥50% = +++)

## 611 (YLLDDGTLVV; listed as Homo sapiens) [compound 611]
  Peptide exchange: ″++++″ (≥75% = ++++)

## 401 (ILLDDTGLAYI; listed as Homo sapiens) [compound 401]
  Peptide exchange: ″+++″ (≥50% = +++)

## 130 (FLWNGEDSALL; listed as Homo sapiens) [compound 130]
  Peptide exchange: ″+++″ (≥50% = +++)

## 287 (FLNEFFLNV; listed as Homo sapiens) [compound 287]
  Peptide exchange: ″+++″ (≥50% = +++)

## 602 (YLLEQIKLIEV; listed as Homo sapiens) [compound 602]
  Peptide exchange: ″++++″ (≥75% = ++++)

## 364 (LLQNEQFEL; listed as Homo sapiens) [compound 364]
  Peptide exchange: ″+++″ (≥50% = +++)

## 605 (KLYEAVPQL; listed as Homo sapiens) [compound 605]
  Peptide exchange: ″+++″ (≥50% = +++)

## 622 (RLLGEEVVRVLQA; listed as Homo sapiens) [compound 622]
  Peptide exchange: ″+++″ (≥50% = +++)

## 194 (ALPLFVITV; listed as Homo sapiens) [compound 194]
  Peptide exchange: ″+++″ (≥50% = +++)

## 426 (RLADKSVLV; listed as Homo sapiens) [compound 426]
  Peptide exchange: ″+++″ (≥50% = +++)

## 356 (KLLGKLPEL; listed as Homo sapiens) [compound 356]
  Peptide exchange: ″+++″ (≥50% = +++)

## 442 (GLLGGGGVLGV; listed as Homo sapiens) [compound 442]
  Peptide exchange: ″+++″ (≥50% = +++)

## 9 (GAAKDLPGV; listed as Homo sapiens) [compound 9]
  Peptide exchange: ″++″ (≥20% = ++)

## 239 (AAFAGKLLSV; listed as Homo sapiens) [compound 239]
  Peptide exchange: ″+++″ (≥50% = +++)

## 195 (GLFADLLPRL; listed as Homo sapiens) [compound 195]
  Peptide exchange: ″+++″ (≥50% = +++)

## 229 (RLPGPLGTV; listed as Homo sapiens) [compound 229]
  Peptide exchange: ″++″ (≥20% = ++)

## 33 (VLLSLLEKV; listed as Homo sapiens) [compound 33]
  Peptide exchange: ″++″ (≥20% = ++)

## 481 (GLIEDYEALL; listed as Homo sapiens) [compound 481]
  Peptide exchange: ″+++″ (≥50% = +++)

## 24 (SLSDGLEEV; listed as Homo sapiens) [compound 24]
  Peptide exchange: ″++″ (≥20% = ++)

## 342 (HIYDKVMTV; listed as Homo sapiens) [compound 342]
  Peptide exchange: ″+++″ (≥50% = +++)

## 99 (ALVSKGLATV; listed as Homo sapiens) [compound 99]
  Peptide exchange: ″++″ (≥20% = ++)

## 122 (FLLAEDDIYL; listed as Homo sapiens) [compound 122]
  Peptide exchange: ″+++″ (≥50% = +++)

## 27 (ILADIVISA; listed as Homo sapiens) [compound 27]
  Peptide exchange: ″+++″ (≥50% = +++)

## 276 (ALFTFSPLTV; listed as Homo sapiens) [compound 276]
  Peptide exchange: ″+++″ (≥50% = +++)

## 55 (SLLDLETLSL; listed as Homo sapiens) [compound 55]
  Peptide exchange: ″++++″ (≥75% = ++++)

## 165 (SLLDEIRAV; listed as Homo sapiens) [compound 165]
  Peptide exchange: ″+++″ (≥50% = +++)

## 346 (LLDSKVPSV; listed as Homo sapiens) [compound 346]
  Peptide exchange: ″+++″ (≥50% = +++)

## 181 (LLWAGTAFQV; listed as Homo sapiens) [compound 181]
  Peptide exchange: ″+++″ (≥50% = +++)

## 137 (TLVLTLPTV; listed as Homo sapiens) [compound 137]
  Peptide exchange: ″++++″ (≥75% = ++++)

## 243 (LLLNELPSV; listed as Homo sapiens) [compound 243]
  Peptide exchange: ″+++″ (≥50% = +++)

## 232 (ALLEAQDVELYL; listed as Homo sapiens) [compound 232]
  Peptide exchange: ″++″ (≥20% = ++)

## 219 (KLSDIGITV; listed as Homo sapiens) [compound 219]
  Peptide exchange: ″+++″ (≥50% = +++)

## 134 (YLQELIFSV; listed as Homo sapiens) [compound 134]
  Peptide exchange: ″+++″ (≥50% = +++)

## 340 (ALLSMTFPL; listed as Homo sapiens) [compound 340]
  Peptide exchange: ″++++″ (≥75% = ++++)

## 436 (HLAEVSAEV; listed as Homo sapiens) [compound 436]
  Peptide exchange: ″+++″ (≥50% = +++)

## 572 (ALADLIEKELSV; listed as Homo sapiens) [compound 572]
  Peptide exchange: ″+++″ (≥50% = +++)

## 528 (SVAEGRALMSV; listed as Homo sapiens) [compound 528]
  Peptide exchange: ″+++″ (≥50% = +++)

## 455 (SLLKEPQKVQL; listed as Homo sapiens) [compound 455]
  Peptide exchange: ″++″ (≥20% = ++)

## 109 (IILSILEQA; listed as Homo sapiens) [compound 109]
  Peptide exchange: ″++++″ (≥75% = ++++)

## 98 (LIIDQADIYL; listed as Homo sapiens) [compound 98]
  Peptide exchange: ″+++″ (≥50% = +++)

## 123 (NLWDLTDASVV; listed as Homo sapiens) [compound 123]
  Peptide exchange: ″+++″ (≥50% = +++)

## 128 (YLFDDPLSAV; listed as Homo sapiens) [compound 128]
  Peptide exchange: ″++″ (≥20% = ++)

## 214 (FLLDLDPLLL; listed as Homo sapiens) [compound 214]
  Peptide exchange: ″+++″ (≥50% = +++)

## 500 (SLMEDQVLQL; listed as Homo sapiens) [compound 500]
  Peptide exchange: ″+++″ (≥50% = +++)

## 494 (ALQPEPIKV; listed as Homo sapiens) [compound 494]
  Peptide exchange: ″++″ (≥20% = ++)

## 352 (SLLELLHIYV; listed as Homo sapiens) [compound 352]
  Peptide exchange: ″+++″ (≥50% = +++)

## 167 (KVLEVTEEFGV; listed as Homo sapiens) [compound 167]
  Peptide exchange: ″+++″ (≥50% = +++)

## 617 (ALMYESEKVGV; listed as Homo sapiens) [compound 617]
  Peptide exchange: ″+++″ (≥50% = +++)
